Measured values reported in patent publication US20030158083A1, “Method of effecting angiogenesis by modulating the function of a novel endothelia phosphatase” (The Procter & Gamble Company, priority 2002, published 2003).

What was measured:
human VEGF receptor-1 = biological target: T1, human VEGF receptor-1 (Homo sapiens, UniProt P17948); test: GST pull-down association assay, VEGFR-1; format: binding; settings: HEK 293 lysate expressing His-tagged full-length KAPh
T1 construct: the intracellular domain of each receptor tyrosine kinase was generated as an in-frame GST fusion; made in house; host or cells: Sf9 insect cells (baculovirus)
T1 sequence (P17948 781-1338 limits assumed): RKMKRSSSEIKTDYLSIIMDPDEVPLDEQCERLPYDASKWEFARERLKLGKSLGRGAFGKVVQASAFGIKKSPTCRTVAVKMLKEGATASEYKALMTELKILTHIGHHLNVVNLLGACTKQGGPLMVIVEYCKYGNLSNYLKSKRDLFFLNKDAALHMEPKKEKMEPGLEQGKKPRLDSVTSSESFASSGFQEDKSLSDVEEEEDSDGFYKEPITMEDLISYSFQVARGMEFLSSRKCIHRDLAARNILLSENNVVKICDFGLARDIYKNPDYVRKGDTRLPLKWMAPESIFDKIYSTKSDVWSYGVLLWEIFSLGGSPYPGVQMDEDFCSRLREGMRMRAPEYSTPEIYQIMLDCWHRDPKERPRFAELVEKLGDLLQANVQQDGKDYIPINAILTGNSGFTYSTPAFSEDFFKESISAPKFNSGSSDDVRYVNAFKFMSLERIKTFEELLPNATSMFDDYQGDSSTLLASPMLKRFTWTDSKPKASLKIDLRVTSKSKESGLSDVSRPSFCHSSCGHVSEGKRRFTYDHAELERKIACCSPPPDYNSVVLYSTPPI
Excerpt: (§1) Recombinant VEGFR-1 kinase (wild-type and K862R mutant), VEGFR2 kinase (wild-type and K870R mutant), Tie1 kinase (wild-type and K871R mutant), and Tie2 kinase (wild-type and K856R mutant) were expressed as glutathione S-transferase (GST) fusion proteins in Sf9 cells using a baculovirus expression system. Briefly, the intracellular domain of each receptor tyrosine kinase was generated as an in-frame GST fusion using the pAcGHLT baculovirus transfer vector (Pharmingen, San Diego, Calif.). Each baculovirus transfer vector construct was cotransfected with BaculoGold (Pharmingen, San Diego, Calif.) linearized AcNPV baculovirus DNA into Sf9 cells for the generation of recombinant baculoviruses. Five days post-transfection, recombinant baculoviruses were harvested and amplified by re-infection of Sf9 cells. Each amplified baculovirus was then used to infect Sf9 cells for the expression of the recombinant kinases. […]
(§2) The immobilized, autophosphorylated kinases were then incubated with HEK 293 cell lysates which overexpressed either the KAPh SH2 domain or KAPh full-length protein. […] KAPh protein that associated with the recombinant kinases was analyzed by Western blot using a chemiluminescence detection system (Amersham Pharmacia, Piscataway, N.J.).

Tie 2 = test: GST pull-down association assay, Tie 2; format: binding, human; settings: wild-type and kinase-inactive mutant
Excerpt: as §1, §2

[1] = biological target: T2, human VEGF receptor-2 (KDR) (Homo sapiens, UniProt P35968, Y1175F); test: GST pull-down association assay, VEGFR2; format: binding; settings: GST fusion Y1175F versus wild-type
T2 construct: the intracellular domain of each receptor tyrosine kinase was generated as an in-frame GST fusion; made in house; host or cells: Sf9 insect cells (baculovirus)

[2] = biological target: T3, human VEGF receptor-2 (KDR) (Homo sapiens, UniProt P35968, Y951F); test: GST pull-down association assay, VEGFR2; format: binding; settings: GST fusion Y951F versus wild-type
T3 construct: the intracellular domain of each receptor tyrosine kinase was generated as an in-frame GST fusion; made in house; host or cells: Sf9 insect cells (baculovirus)

[3] = biological target: T4, human VEGF receptor-2 (KDR) (Homo sapiens, UniProt P35968); test: GST pull-down association assay, VEGFR2; format: binding; settings: HEK 293 lysate expressing His-tagged protein; Western blot
T4 construct: the intracellular domain of each receptor tyrosine kinase was generated as an in-frame GST fusion; made in house; host or cells: Sf9 insect cells (baculovirus)
T4 sequence (P35968 790-1356): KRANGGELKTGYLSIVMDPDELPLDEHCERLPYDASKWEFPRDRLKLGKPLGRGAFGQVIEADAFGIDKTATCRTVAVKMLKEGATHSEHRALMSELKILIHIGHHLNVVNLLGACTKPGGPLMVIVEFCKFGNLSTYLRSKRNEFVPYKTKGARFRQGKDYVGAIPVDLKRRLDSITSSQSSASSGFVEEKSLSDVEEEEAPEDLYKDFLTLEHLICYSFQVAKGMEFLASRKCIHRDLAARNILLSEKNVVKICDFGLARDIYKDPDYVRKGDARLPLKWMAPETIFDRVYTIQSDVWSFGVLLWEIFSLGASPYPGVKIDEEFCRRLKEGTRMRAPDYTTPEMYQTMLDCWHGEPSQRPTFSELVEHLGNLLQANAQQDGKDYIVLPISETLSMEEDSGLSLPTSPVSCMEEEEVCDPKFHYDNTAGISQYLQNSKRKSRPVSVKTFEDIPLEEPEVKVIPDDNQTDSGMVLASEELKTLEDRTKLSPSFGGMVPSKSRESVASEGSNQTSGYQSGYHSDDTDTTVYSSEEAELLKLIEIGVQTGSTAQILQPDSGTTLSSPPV

T3 sequence (P35968 790-1356 Y951F): as the sequence (P35968 790-1356) above, with Y162F counted along it
T2 sequence (P35968 790-1356 Y1175F): as the sequence (P35968 790-1356) above, with Y386F counted along it

B1: KAPh: novel human KDR Associated Phosphatase protein, full-length sequence SEQ ID NOS 1 and 2 (protein, listed as Homo sapiens)
chain: MKPRKAEPHSFREKVFRKKPPVCAVCKVTIDGTGVSCRVCKVATHRKCEAKVTSACQALPPVELRRNTAPVRRIEHLGSTKSLNHSKQRSTLPRSFSLDPLMERRWDLDLTYVTERILAAAFPARPDEQRHRGHLRELAHVLQSKHRDKYLLFNLSEKRHDLTRLNPKVQDFGWPELHAPPLDKLCSICKAMETWLSADPQHVVVLYCKGNKGKLGVIVSAYMHYSKISAGADQALATLTMRKFCEDKVATELQPSQRRYISYFSGLLSGSIRMNSSPLFLHYVLIPMLPAFEPGTGFQPFLKIYQSMQLVYTSGVYHIAGPGPQQLCISLEPALLLKGDVMVTCYHKGGRGTDRTLVFRVQFHTCTIHGPQLTFPKDQLDEAWTDERFPFQASVEFVFSSSPEKIKGSTPRNDPSVSVDYNTTEPAVRWDSYENFNQHHEDSVDGSLTHTRGPLDGSPYAQVQRPPRQTPPAPSPEPPPPPMLSVSSDSGHSSTLTTEPAAESPGRPPPTAAERQELDRLLGGCGVASGGRGAGRETAILDDEEQPTVGGGPHLGVYPGHRPGLSRHCSCRQGYREPCGVPNGGYYRPEGTLERRRLAYGGYEGSPQGYAEASMEKRRLCRSLSEGLYPYPPEMGKPATGDFGYRAPGYREVVILEDPGLPALYPCPACEEKLALPTAALYGLRLEREAGEGWASEAGKPLLHPVRPGHPLPLLLPACGHHHAPMPDYSCLKPPKAGEEGHEGCSYTMCPEGRYGHPGYPALVTYSYGGAVPSYCPAYGRVPHSCGSPGEGRGYPSPGAHSPRAGSISPGSPPYPQSRKLSYEIPTEEGGDRYPLPGHLASAGPLASAESLEPVSWREGPSGHSTLPRSPRDAPCSASSELSGPSTPLHTSSPVQGKESTRRQDTRSPTSAPTQRLSPGEALPPVSQAGTGKAPELPSGSGPEPLAPSPVSPTFPPSSPSDWPQERSPGGHSDGASPRSPVPTTLPGLRHAPWQGPRGPPDSPDGSPLTPVPSQMPWLVASPEPPQSSPTPAFPLAASYDTNGLSQPPLPEKRHLPGPGQQPGPWGPEQASSPARGISHHVTFAPLLSDNVPQTPEPPTQESQSNVKFVQDTSKFWYKPHLSRDQAIALLKDKDPGAFLIRDSHSFQGAYGLALKVATPPPSAQPWKGDPVEQLVRHFLIETGPKGVKIKGCPSEPYFGSLSALVSQHSISPISLPCCLRILSKDPLEETPEAPVPTNMSTAADLLRQGAACSVLYLTSVETESLTGPQAVARASSAALSCSPRPTPAVVHFKVSAQGITLTDNQRKLFFRRHYPVNSITFSSTDPQDRRWTNPDGTTSKIFGFVAKKPGSPWENVCHLFAELDPDQPAGAIVTFITKVLLGQRK
Human VEGF receptor-1
  interaction with GST VEGFR-1, wild-type versus K862R: weak, but reproducible, autophosphorylation-dependent interaction
Tie 2
  interaction with GST Tie 2: no interaction
[1]
  interaction with VEGFR2 Y1175F mutant: nearly abolished
[2]
  association with VEGFR2 Y951F mutant: no significant change in association
[3]
  interaction with GST VEGFR2, wild-type versus catalytically inactive K870R: interacted in an autophosphorylation-dependent manner
